The Human Domainome abundance scans (Beltran et al. 2025)
± gives the uncertainty stated by the source.

B1: Myocardin, residues 363 to 406; numbered along this chain, Q8IZQ8 (parent)
chain: KPGPLPPNLDDLKVSELRQQLRIRGLPVSGTKTALMDRLRPFQD

Variants of: B1
Experiment: abundance fitness (aPCA) (normalised: wild type 0, dead -1); higher = more abundant; growth selection in yeast, the domain comes from the species named
Settings: Homo sapiens

Variant | abundance fitness
G25W | -1.15 ± 0.25
G25N | -0.024 ± 0.18
G25P | -0.591 ± 0.12
G25L | -1.12 ± 0.35
G25C | -0.342 ± 0.12
G25D | -0.246 ± 0.16
G25A | -0.39 ± 0.084
G25S | -0.318 ± 0.12
G25F | -0.175 ± 0.38
G25H | 0.308 ± 0.16
G25T | -0.56 ± 0.1
G25E | -0.274 ± 0.1
G25K | 0.068 ± 0.14
G25R | -0.401 ± 0.09
G25V | -1.38 ± 0.3
G25Q | -0.325 ± 0.088
G25M | -0.358 ± 0.14
L21Q | -0.517 ± 0.091
L21A | -0.037 ± 0.061
L21V | -0.432 ± 0.1
L21E | -0.42 ± 0.096
L21C | -0.271 ± 0.17
L21P | -0.523 ± 0.12
L21S | -0.94 ± 0.15

Variant | abundance fitness
L21W | -1.02 ± 0.13
L21N | -0.244 ± 0.26
L21G | -0.68 ± 0.069
L21M | -0.321 ± 0.12
L21D | -0.361 ± 0.11
L21K | -0.296 ± 0.15
T31C | -0.052 ± 0.24
T31A | 0.078 ± 0.1
T31G | -0.214 ± 0.06
T31E | -0.01 ± 0.11
T31F | -0.718 ± 0.39
T31R | -0.319 ± 0.085
T31D | 0.155 ± 0.092
T31S | 0.103 ± 0.1
T31N | 0.352 ± 0.11
T31Q | -0.273 ± 0.12
T31P | -0.222 ± 0.094
T31W | -0.994 ± 0.13
T31K | -0.217 ± 0.16
T31V | -0.189 ± 0.072
T31M | -0.62 ± 0.22
T31L | -0.344 ± 0.092
T31H | -0.331 ± 0.13
R22T | -0.258 ± 0.12

Variant | abundance fitness
R22P | -0.818 ± 0.14
R22G | -0.531 ± 0.07
R22Q | -0.928 ± 0.16
R22K | 0.063 ± 0.12
R22M | -0.619 ± 0.44
R22C | -0.194 ± 0.34
R22L | -0.374 ± 0.15
R22S | -0.21 ± 0.11
R22W | -0.771 ± 0.12
R22H | -0.624 ± 0.39
R22A | -0.138 ± 0.074
R22N | -0.371 ± 0.11
R22I | -0.384 ± 0.17
R22V | -0.557 ± 0.11
G30T | -0.901 ± 0.3
G30N | -0.871 ± 0.48
G30D | -0.504 ± 0.13
G30E | -0.607 ± 0.11
G30V | -0.894 ± 0.096
G30Y | -0.951 ± 0.14
G30C | -0.709 ± 0.17
G30A | -0.967 ± 0.14
G30L | -0.879 ± 0.12
G30R | -0.876 ± 0.12

Variant | abundance fitness
G30S | -0.779 ± 0.1
R18M | -0.503 ± 0.11
R18Y | -0.744 ± 0.31
R18G | -0.888 ± 0.12
R18H | -0.321 ± 0.24
R18Q | -0.179 ± 0.11
R18W | -0.861 ± 0.19
R18P | -0.727 ± 0.15
R18L | -0.44 ± 0.091
R18V | -0.312 ± 0.076
R18F | -0.481 ± 0.16
R18A | -0.366 ± 0.074
R18T | -0.388 ± 0.1
R18C | 0.116 ± 0.26
R18K | 0.032 ± 0.1
R18I | -0.133 ± 0.47
R18E | -0.177 ± 0.15
Q19G | -0.368 ± 0.066
Q19D | -0.05 ± 0.14
Q19T | -0.439 ± 0.17
Q19H | -0.412 ± 0.41
Q19L | -0.198 ± 0.088
Q19Y | -0.124 ± 0.14
Q19V | -0.544 ± 0.096

Variant | abundance fitness
Q19S | -0.261 ± 0.09
Q19C | -0.464 ± 0.093
Q19P | -0.761 ± 0.13
Q19E | 0.029 ± 0.087
Q19W | -0.717 ± 0.18
Q19M | -0.206 ± 0.18
Q19A | -0.194 ± 0.073
I23L | -0.021 ± 0.099
I23N | -0.45 ± 0.26
I23Y | 0.013 ± 0.098
I23Q | -0.229 ± 0.092
I23E | 0.043 ± 0.12
I23K | -0.153 ± 0.084
I23A | 0.091 ± 0.062
I23R | -0.211 ± 0.065
I23F | -0.378 ± 0.26
I23T | -0.261 ± 0.18
I23S | 0.033 ± 0.067
I23V | -0.092 ± 0.061
I23C | -0.315 ± 0.47
I23P | -0.605 ± 0.12
I23G | -0.24 ± 0.06
I23W | -0.291 ± 0.085
K32G | -0.856 ± 0.092

Variant | abundance fitness
K32V | -0.357 ± 0.09
K32M | -0.696 ± 0.16
K32Q | -0.58 ± 0.11
K32E | -0.286 ± 0.085
K32D | -0.489 ± 0.1
K32A | -0.449 ± 0.068
K32F | -0.642 ± 0.15
K32C | -0.763 ± 0.16
K32W | -0.759 ± 0.1
K32T | -0.349 ± 0.083
K32L | -0.784 ± 0.074
K32S | -0.905 ± 0.11
K32Y | -0.593 ± 0.31
K32R | -0.012 ± 0.054
K32P | -0.583 ± 0.071
K32I | -0.488 ± 0.26
R24P | -0.456 ± 0.16
R24L | -0.429 ± 0.12
R24F | -0.819 ± 0.19
R24K | -0.387 ± 0.095
R24V | -0.528 ± 0.1
R24W | -0.732 ± 0.14
R24Y | -1.16 ± 0.34
R24S | -0.881 ± 0.16

Variant | abundance fitness
R24E | -0.56 ± 0.14
R24G | -0.878 ± 0.11
R24Q | -0.73 ± 0.2
R24D | -0.536 ± 0.16
R24A | -0.695 ± 0.11
R24M | 0.092 ± 0.2
R24T | -0.905 ± 0.26
R24N | -0.695 ± 0.15
L26K | -0.404 ± 0.2
L26H | -1.1 ± 0.27
L26W | -0.951 ± 0.14
L26V | -0.732 ± 0.12
L26E | -0.293 ± 0.084
L26G | -0.586 ± 0.12
L26S | -0.562 ± 0.1
L26A | -0.479 ± 0.094
L26T | -0.805 ± 0.15
L26P | -0.676 ± 0.38
L26Q | -0.503 ± 0.14
L26M | 0.075 ± 0.13
L26R | -0.858 ± 0.083
L26I | -0.431 ± 0.19
L12S | -0.274 ± 0.12
